The data set is described as follows: protein stability index of a GFP-peptide fusion (GPS, HEK-293T) (PSI 1-6); higher = more stable.
The mark [1] stands for this setting: treatment: DMSO, c terminus: a fixed tail appended.
Setting [2] is: treatment: MLN4924 1 uM, 8 h, c terminus: a fixed tail appended.

± gives the standard deviation.

The source of these data is the supplement of paper PMC10567573.
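Note: 24-mer peptide tiles fused after GFP, lentivirally expressed, FACS-sorted into six equal bins by GFP/DsRed ratio, decoded by Illumina sequencing, PSI is the read-weighted mean bin number.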

With QLNGILLHLESELAQTRAEGQRQA [KRT18], the protein stability index is 2.93 ± 0.26 under setting [1] and 2.86 ± 0.16 under setting [2].
Turning to RQFLPEEFMKTLEKTGPQLTSRIK [DENND6A], the protein stability index worked out at 3.55 ± 0.33 under setting [1] and 3.58 ± 0.43 under setting [2].
For EQEIQFEDFTNTLRELGHAEHEIT [PKD2L1] the same measures were 5.16 ± 0.2 and 5.17 ± 0.32.
As for NLPIIAKMAAVSKASGRFGLLQGT [SEPHS2], the protein stability index is 2.31 ± 0.18 under setting [1] and 2.25 ± 0.2 under setting [2].
As to SDLFRLQEYNIPGVIQSVIGWKTV [CDS2], the protein stability index by setting is: under setting [1], 2.28 ± 0.26; under setting [2], 2.1 ± 0.28.
For SSDVSTAGTGASRSSHSSDSGGSD [ELF3] the same measures were 5.44 ± 0.32 and 5.565 ± 0.049.
The like results for DVMLVECYDPKGDQWNILQTPILE [KLHL14] were, in that order, 2.55 ± 0.36 and 2.64 ± 0.38.
The like results for YYSVETVTLLVALKVRYRERITIL [PPP2CA] were, in that order, 2.63 ± 0.69 and 2.56 ± 0.58.
For KDRETSKVIYDFIEKTGGVEAVKN [WASL], the protein stability index is 3.28 ± 0.068 under setting [1] and 3.37 ± 0.078 under setting [2].
The like results for TSLKTKFPAEQYYRFHEHWRFVLQ [TSN] were, in that order, 2.34 ± 0.19 and 2.54 ± 0.16.
For ETETLVTREAVTEILGIEPDREKG [TSN] the same measures were 5.5 ± 0.19 and 5.39 ± 0.33.
For GLAKCNGLSHSHDLSMDGLFGTIA [RIPK4] the same measures were 2.47 ± 0.43 and 2.38 ± 0.13.
In the case of YAIVRRPTVGIGGDRLQFNQLSQA [EFHC1], the protein stability index under setting [1] was 2.06 ± 0.21 and the protein stability index under setting [2] worked out at 2.5 ± 0.19.
The like results for YKCSDCGKTFKQSSNLGQHQRIHT [ZNF232] were, in that order, 4.22 ± 0.18 and 4.3 ± 0.45.
For the sequence AAPWPMAFPYQYPPPPHPYNPHPG [DVL3], the protein stability index reads like this: under setting [1], 2.62 ± 0.26; under setting [2], 2.85 ± 0.21.
Turning to SQKYKEGKYIIELNHMIKDNGWD [YPEL3], the protein stability index runs as follows: (treatment: DMSO, c terminus: native) 2.94 ± 0.28; (treatment: MLN4924 1 uM, 8 h, c terminus: native) 2.97 ± 0.15.
Take LLQSFHGHGADVLCLDLAPSETGN [GNB5]: the protein stability index is 3.23 ± 0.3 under setting [1] and 3.39 ± 0.14 under setting [2].
PIRSRRALPPLRTRSKSDPVLHPS [FAM189A2] returned a protein stability index under setting [1] of 4.9 ± 0.17 and a protein stability index under setting [2] of 4.94 ± 0.16.
For DDPENKKTSSSSKAGFTASPFTNL [CDC14A] the same measures were 4.92 ± 0.27 and 4.95 ± 0.14.
Consider EVQGDQQAWFGFAGTPGYLSPEVL [CAMK2B], for which the protein stability index under setting [1] was found to be 3.07 ± 0.35 and the protein stability index under setting [2] was determined as 3.14 ± 0.21.
For PHVCSLCGKAFYKKYRLTEHERAH [ZNF649] the same measures were 4.54 ± 0.24 and 4.66 ± 0.55.
In the case of QTMLSHYRPFYVNKGNGIGSNEAP [TRIM29], the protein stability index worked out at 2.97 ± 0.27 under setting [1] and 3.17 ± 0.2 under setting [2].
Regarding PPHREGEAAGGDHETESTSDKETD [CDS1], the protein stability index amounted to 5.67 ± 0.31 under setting [1] and 5.58 ± 0.57 under setting [2].
For ALIICYNWLHRRLAGQFLEELRKF [MOG] the same measures were 2.64 ± 0.65 and 2.47 ± 0.57.
The like results for ERTEESSAVQYFQFYGYLSQQQNM [CARM1] were, in that order, 2.56 ± 0.25 and 2.82 ± 0.52.
Consider VDATLEHVQDPQNTVKVQVLYPDG [INTS4], for which the protein stability index was 4.37 ± 0.12 under setting [1] and 4.49 ± 0.15 under setting [2].
For LFAEEQAEGPNRLLYKDGFSTILH [LPCAT4] the same measures were 3.17 ± 0.24 and 3.1 ± 0.35.
The like results for KGKFSTDTKGKPTSRTQVYKPPAL [ZC2HC1A] were, in that order, 3.77 ± 0.19 and 3.8 ± 0.15.
In the case of PGSQTAVKNSNRYDVEMTDELVGL [FBXO34], the protein stability index runs as follows: under setting [1], 4.98 ± 0.12; under setting [2], 4.93 ± 0.27.
The like results for GVGGWRDYGVDPSQFSGTLMRTCE [PPTC7] were, in that order, 2.81 ± 0.36 and 3.28 ± 0.74.
With EGLRELQRSRRLCHEDVEALAAIY [DAPK3], the protein stability index under setting [1] was found to be 2.72 ± 0.74.
With NRTLWRLDLAGNNIPGDVLRAVEQ [LRRC45], the protein stability index was determined as 3.01 ± 0.6 under setting [1] and 3.51 ± 0.43 under setting [2].
For PVPILEKLPLQIDCLAAWEEWLLV [VPS39] the same measures were 2.24 ± 0.19 and 2.18 ± 0.27.
The like results for GPRRLVSCLSSQSSALSQSGGGST [SPACA3] were, in that order, 3.81 ± 0.22 and 4 ± 0.19.
With LRIFVWLLLLYFMQVIAIVLYLMM [PHTF1], the protein stability index is 2.99 ± 0.71 under setting [1] and 2.75 ± 0.55 under setting [2].
Turning to PDEGSDLFYDDYYEDGEVEEEADS [CDC34], the protein stability index was determined as 5.36 ± 0.32 under setting [1] and 5.66 ± 0.25 under setting [2].
For VLPKPKVISCLEQGEEPWVQVSPE [ZNF75A] the same measures were 4.21 ± 0.23 and 4.07 ± 0.3.
The like results for LPGSYLSSECHTSGFVGSGGWFCE [KRT36] were, in that order, 2.15 ± 0.39 and 2.24 ± 0.26.
For ALAVKAGHGYDSKKQQELTAAVLG [ZBED1] the same measures were 3.82 ± 0.24 and 3.87 ± 0.25.
Turning to PPETSLPYKWVVEAANLLIPAVGS [MYBL2], the protein stability index stood at 2.41 ± 0.42 under setting [1] and 2.27 ± 0.29 under setting [2].
For ELEGLIADPDEMRMQALLIRERIL [FEM1C] the same measures were 2.54 ± 0.48 and 2.65 ± 0.43.
The like results for SDSESKPDQEAEPQEAAGAQGRAG [EPB41L3] were, in that order, 5.54 ± 0.37 and 5.63 ± 0.22.
For HLVPVIEMWADQLTSLKDLYKSLK [CEP70] the same measures were 2.47 ± 0.5 and 2.32 ± 0.39.
Sequence LFQVVINPNFEVAESDYSNNIMKC [LOXL2] yielded a protein stability index under setting [1] of 2.09 ± 0.28 and a protein stability index under setting [2] of 2.5 ± 0.27.
Take FHGTRQYKFDPKTKRILTLQKANS [MMP1]: the protein stability index is 2.38 ± 0.5 under setting [1] and 2.6 ± 0.54 under setting [2].
For PDVVVRSFMTWLRSYIKLFQAPCQ [MED27] the same measures were 2.06 ± 0.19 and 2.12 ± 0.28.
For GPILQKDYVQLENQWETPPEDLQT [ZNF449] the same measures were 4.94 ± 0.11 and 5 ± 0.28.
On to PPQLRPGAPTSLQTEPQDRSPAPM [BCL2L11], for which the protein stability index under setting [2] is 5.18 ± 0.077.
Turning to LHVNPKKQTIGNSCKACGYRGMLD [EIF5], the protein stability index by setting is: under setting [1], 2.35 ± 0.29; under setting [2], 2.44 ± 0.64.
For FKSLFGSIGDIESCKLVRDKITGQ [ELAVL3] the same measures were 2.87 ± 0.38 and 2.56 ± 0.15.
In the case of EAPALGGGEYQEPGGNVKGVWAPP [BEX5], the protein stability index by setting is: under setting [1], 4.57 ± 0.37; under setting [2], 4.71 ± 0.14.
As to HPVNPPYYIPLVELVPHPETAPTT [CRYL1], the protein stability index is, setting by setting: under setting [1], 3.51 ± 0.33; under setting [2], 3.51 ± 0.22.
LFEEPAPQALATRALPCPAHVVFR [FCHSD1]: the protein stability index was determined as 3.13 ± 0.16 under setting [1] and 3.21 ± 0.19 under setting [2].
